B1: ZNF75A (parent)
chain: RTHTGEQPYTCSICRRNFSRRSSL
B2: ZER1 (parent)
chain: KEMARKVIEHCSNFKEENMDTSR

Variants of: B1
Experiment: protein stability index of a GFP-peptide fusion (GPS, HEK-293T) (PSI 1-6); higher = more stable
Settings: c terminus: a fixed tail appended
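Also: lentivirally expressed fusions sorted by FACS into six bins by GFP to DsRed ratio, PSI derived from sequencing read proportions per bin multiplied by bin number.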

Protein stability index: each site, then its substitutions
L24: Q 3.05 | K 4.06 | Y 3.03 | T 3.03 | C 2.63 | R 3.63 | W 1.96 | H 3.23 | I 2.79 | A 3.02 | S 2.99 | N 2.56 | G 3.1 | M 2.96 | V 2.29 | E 4.02 | F 2.65 | P 3.82 | D 2.71
R20: G 3.5 | D 2.46 | K 2.12 | E 1.83 | L 2.56 | S 1.93 | A 2.67 | H 2.53 | W 1.52 | P 2.36 | M 2.15 | C 2.4 | N 2.19 | T 2.59 | Q 2.13 | I 1.73 | V 2.46 | Y 2.24 | F 1.72
S22: T 3.27 | Q 2.77 | E 2.77 | M 2.25 | Y 2.99 | K 3.16 | I 2.77 | R 3.55 | N 2.65 | L 2.91 | P 2.76 | W 2.42 | D 2.3 | A 2.86 | C 2.64 | G 2.51 | V 2.93 | H 3.5 | F 2.81
R21: N 2.72 | P 1.97 | F 1.95 | H 2.12 | A 1.64 | W 2.69 | T 2.84 | K 2.5 | G 1.72 | Y 1.39 | C 2.24 | V 1.95 | S 1.58 | E 3.51 | Q 3.09 | D 2.73 | L 1.79 | I 1.61 | M 2.37
F18: S 2.69 | T 2.28 | R 3.99 | W 2.31 | Y 2.61 | V 2.8
S23: T 2.72 | R 2.9 | F 1.78 | I 2.13 | D 2.28 | C 2.85 | Y 1.78 | G 2.76 | V 2.5 | K 3.2 | E 2.17 | N 2.63 | P 2.94 | M 2.33 | H 2.32 | W 2.34 | A 2.67 | L 2.15 | Q 2.04
S19: Y 4.33 | T 3.25 | N 3.59 | F 2.59 | D 2.67 | I 3.39 | W 2.21 | Q 2.72 | V 2.4 | P 2.23 | E 3.05 | K 2.91 | M 2.68 | G 2.68 | H 2.62 | L 2.51 | R 2.99 | A 2.04 | C 2.52

Variants of: B2
Experiment: as above
Settings: c terminus: native

Protein stability index: each site, then its substitutions
A4: G 4.45 | F 1.9 | T 3.94 | N 4.21 | R 4.15 | I 2.32 | H 4.02 | Q 4.21 | L 2.23 | Y 2.89 | V 2.59 | K 4.29 | M 2.48 | C 3.02 | S 4.13 | D 4.48 | E 4.39 | P 4.57
I8: V 4.35 | W 1.86 | K 4.91 | L 3.13 | Y 3.88 | H 4.29 | F 3.2 | R 4.33 | D 5.19 | Q 4.67 | E 4.87 | G 4.64 | P 4.7 | C 4.42 | T 4.4 | S 3.92 | N 4.98 | A 4.58 | M 3.51
M3: I 3.29 | G 4.37 | D 4.86 | P 4.78 | H 4.05 | V 4.22 | W 2.28 | F 1.72 | Q 4.45 | K 4.36 | L 3.52 | T 4.3 | S 4.64 | Y 3.29 | E 4.53 | C 4.08 | R 3.98 | N 4.14 | A 4.49
S12: E 3.85 | C 2.98 | D 4.24 | A 3.7 | F 2.77 | G 4.21
C11: H 3.87 | I 2.02 | A 4.77 | P 4.83 | G 4.63 | M 2.58 | R 4.48 | L 2.59 | V 2.84 | F 1.38 | E 4.45 | Y 2.11 | S 3.96 | W 2.19 | T 4.62 | N 4.26 | Q 4.43 | D 4.79 | K 4.94
K6: C 2.92 | T 2.74 | E 4.5 | S 2.96 | I 2.36 | D 4.19 | V 2.52 | H 3.09 | R 2.63 | M 2.14 | A 3.58 | N 3.89 | G 4.21 | W 2.71 | P 4.47 | F 1.72 | Q 3.73 | Y 1.7 | L 1.52
V7: R 4.65 | G 5.13 | L 1.92 | Y 2.09 | E 5.27 | N 5.1 | P 4.46 | C 4.55 | I 1.59 | S 4.98 | D 5.26 | M 2.44 | W 3.19 | A 4.87 | F 3.83 | Q 4.87 | H 1.52 | T 4.89 | K 4.88
E2: W 2.01 | I 3.27 | C 3.12 | S 2.74 | R 3.57 | F 2.11 | T 3.39 | L 2.76 | H 3.12 | P 4.13 | A 3.23 | M 3.42 | D 3.25 | Y 2.35 | V 3.52 | N 3.4 | Q 3.53 | K 3.44 | G 2.82
R5: G 3.65 | K 4.15 | Q 3.26 | L 2.74 | S 3.81 | T 3.58 | A 4.4 | P 4.74 | Y 2.68 | E 4.72 | H 3.72 | V 3.14 | C 3.76 | D 4.9 | W 1.94 | N 4.01 | I 2.83 | M 3.13 | F 2.48
H10: T 3.98 | W 2.15 | L 1.76 | N 4.29 | V 3.33 | R 3.59 | S 3.57 | P 5.17 | Y 1.9 | G 4.56 | C 3.1 | E 3.69 | Q 3.83 | D 4.06 | K 4.78 | M 1.81 | A 3.49 | F 2.78 | I 1.94
E9: A 4 | C 4.04 | H 3.92 | K 4.37 | D 4.11 | S 4.26 | I 3.03 | P 4.58 | G 4.29 | V 3.87 | F 2.13 | L 2.64 | Y 3.16 | R 4.01 | M 2.96 | N 4.29 | W 1.55 | Q 4.08 | T 4.35
K1: W 2.98 | D 4.45 | M 2.75 | V 3.26 | R 4.31 | G 4.12 | I 2.95 | P 3.36 | F 2.86 | A 3.7 | T 3.65 | C 2.6 | Y 3.31 | E 4.81 | H 4.3 | L 2.73 | S 3.87 | Q 4.3 | N 4.24

Source: the supplement of paper PMC10567573
